Target: CsrA (6xHis-CsrA) (UniProt A0A2I3CA03 1-65)
Assay: EMSA; high affinity
Settings: protein: recombinant; tags: 6xHis (named 6xHis-CsrA); chain copies: 2; label: biotin

B1: rraA -64 to +36 RNA (ssRNA)
RNA: AAGGUAUAGAAAAGGAUACUGCUCACUGAAGCAACGCUUGGGUGAGAAAAUUCACGGAGGAAAUAUGAGAGACAUUACACCCGAUAUUUGUGACCAAUUU
B1: binds.
